Assay [1] concerns the target SARS-CoV-2 spike protein S2 (SARS-CoV-2). Put plainly: ITC. On the technique in general: In ITC the heat of successive injections is recorded.
The target in assay [2] is SARS-CoV-2 spike protein S1 (SARS-CoV-2). Put plainly: ITC.

pKd: −log10 of the molar value. Where “and” joins values, the source holds several entries; their conditions need not be identical. Equal entries are not always repeated.

Usually pKd stands for −log10 of the Kd, conventionally taken in molar units. Read a high pKd as a small Kd. As to “truncated canavalin (from UniProt P10562 242-445) (domain or fragment)”, in assay [1], the pKd was 5.00 and 4.10; the dH is -0.8 kcal/mol. Moreover, in assay [2], the pKd was 4.70 and 4.00; the dH was -6 kcal/mol and -7 kcal/mol.
